Experimental data from patent US20120058906A1 (published 2012).
Where a chain is given by its changes, count along the chain named.

Columns and labels:
[1] = target: T1, rHuman Notch-1/Fc Chimera, CF (R&D Systems Cat#3647-TK) (human, UniProt P46531 19-526); assay: MSD ECL multi-spot, Fab 0.14 uM, blank 237
T1 construct: Bought Fc chimera; Fc part of the bought chimera not given

[2] = target: T2, rHuman CD44/Fc Chimera, CF (R&D Systems Cat#3660-CD) (human, UniProt P16070 21-220); assay: MSD ECL multi-spot, Fab 0.14 uM, blank 237
T2 construct: Bought Fc chimera; Fc part of the bought chimera not given

[3] = target: T3, rHuman IGF-1 sR (insulin-like growth factor-1 soluble receptor), CF (R&D Systems Cat#391-GR) (human, UniProt P08069 31-932); assay: MSD ECL multi-spot, Fab 0.14 uM, blank 237
T3 construct: Bought soluble receptor; also called IGF-R1

[4] = target: T4, rHuman P-Cadherin/Fc Chimera, CF (R&D Systems Cat#861-PC) (human, UniProt P22223 108-654); assay: MSD ECL multi-spot, Fab 0.14 uM, blank 237
T4 construct: Bought Fc chimera; Fc part of the bought chimera not given

[5] = target: T5, rHuman Erythropoietin R/Fc Chimera, CF (R&D Systems Cat#963-ER) (human, UniProt P19235 25-250); assay: MSD ECL multi-spot, Fab 0.14 uM, blank 237
T5 construct: Bought Fc chimera; also called EPO R/Fc; EPOR; Fc part of the bought chimera not given
T5 sequence: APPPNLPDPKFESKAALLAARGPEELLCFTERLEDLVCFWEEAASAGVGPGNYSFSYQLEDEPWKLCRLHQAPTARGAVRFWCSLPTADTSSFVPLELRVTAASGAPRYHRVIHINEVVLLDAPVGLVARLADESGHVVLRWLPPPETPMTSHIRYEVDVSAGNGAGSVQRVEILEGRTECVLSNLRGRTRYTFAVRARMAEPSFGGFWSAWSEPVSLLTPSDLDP

[6] = target: T6, Recombinant Human DLL4 (R&D Systems Cat#1506-D4/CF) (human, UniProt Q9NR61 27-524); assay: MSD ECL multi-spot, Fab 0.14 uM, blank 237
T6 construct: Bought recombinant protein; also called rHuman DLL4; delta-like protein 4

[7] = target: T7, rHuman ErbB2/Fc Chimera, CF (R&D Systems Cat#1129-ER) (human, UniProt P04626 23-652); assay: MSD ECL multi-spot, Fab 0.14 uM, blank 237
T7 construct: Bought Fc chimera; also called HER2/neu; Fc part of the bought chimera not given

[8] = target: T8, rHuman EGF R/Fc Chimera, CF (R&D Systems Cat#344-ER) (human, UniProt P00533 25-645); assay: MSD ECL multi-spot, Fab 0.14 uM, blank 237
T8 construct: Bought Fc chimera; Fc part of the bought chimera not given

[9] = target: T9, rHuman HGF R/c-MET/Fc Chimera, CF (R&D Systems Cat#358-MT/CF) (human, UniProt P08581 25-932); assay: MSD ECL multi-spot, Fab 0.14 uM, blank 237
T9 construct: Bought Fc chimera; also called HGF R/Fc; Fc part of the bought chimera not given

[10] = target: T10, rHuman IGF-1 sR (insulin-like growth factor-1 soluble receptor), CF (R&D Systems Cat#391-GR) (human, UniProt P08069 31-932); assay: ECL (MSD multi-spot), antigen on plate, Fab 50 nM
T10 construct: Bought soluble receptor; also called IGF-R1

[11] = target: T11, rHuman Erythropoietin R/Fc Chimera, CF (R&D Systems Cat#963-ER) (human, UniProt P19235 25-250); assay: ECL (MSD multi-spot), antigen on plate, Fab 50 nM
T11 construct: Bought Fc chimera; also called EPO R/Fc; Epo R; not shown: Fc of the bought chimera
T11 sequence: T5 sequence

[12] = target: T12, Recombinant Human DLL4 (R&D Systems Cat#1506-D4/CF) (human, UniProt Q9NR61 27-524); assay: ECL (MSD multi-spot), antigen on plate, Fab 50 nM
T12 construct: Bought recombinant protein; also called delta-like protein 4

[13] = target: T13, rHuman Erythropoietin R/Fc Chimera, CF (R&D Systems Cat#963-ER) (human, UniProt P19235 25-250); assay: ECL (MSD Multi-Spot) binding assay, antigen spotted on plate; Fab 30 nM; blank spot 213
T13 construct: Bought Fc chimera; also called EPO R/Fc; Epo R; Fc part of the bought chimera not given
T13 sequence: T5 sequence

[14] = target: T14, rHuman Notch-1/Fc Chimera, CF (R&D Systems Cat#3647-TK) (human, UniProt P46531 19-526); assay: as above
T14 construct: Bought Fc chimera; Fc part of the bought chimera not given

[15] = target: T15, rHuman CD44/Fc Chimera, CF (R&D Systems Cat#3660-CD) (human, UniProt P16070 21-220); assay: as above
T15 construct: Bought Fc chimera; Fc part of the bought chimera not given

[16] = target: T13, rHuman Erythropoietin R/Fc Chimera, CF …; assay: ECL (MSD Multi-Spot) binding assay, antigen spotted on plate; Fab 120 nM; blank spot 363
[17] = target: T16, Recombinant Human DLL4 (R&D Systems Cat#1506-D4/CF) (human, UniProt Q9NR61 27-524); assay: as above
T16 construct: Bought recombinant protein; also called delta-like protein 4; rHuman DLL4

[18] = target: T14, rHuman Notch-1/Fc Chimera, CF (R&D …); assay: as above
[19] = target: T15, rHuman CD44/Fc Chimera, CF (R&D Systems …); assay: as above
[20] = target: T17, rHuman P-Cadherin/Fc Chimera, CF (R&D Systems Cat#861-PC) (human, UniProt P22223 108-654); assay: as above
T17 construct: Bought Fc chimera; also called CDH3; Fc part of the bought chimera not given
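Note: blank spot per well as comparator with Hit at signal to blank ratio of 4 or more.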

B1: Fab VH1-46_IGHD6-6*01_IGHJ1*01 & L6_IGKJ1*01 (Fab, V domains shown)
VH: QVQLVQSGAEVKKPGASVKVSCKASGYTFTSYYMHWVRQAPGQGLEWMGIINPSGGSTSYAQKFQGRVTMTRDTSTSTVYMELSSLRSEDTAVYYCAREEYSSSSAEYFQHWGQGTLVTVSS
VL: not shown
notes: Expressed in E. coli as Fab: heavy chain with CH1 plus Flag and His tags from Plasmid A, kappa light chain constant region from Plasmid C; also called Fab No. 1
[1]
  ECL signal: 614
[2]
  ECL signal: 515
[3]
  ECL signal: 663
[4]
  ECL signal: 423
[5]
  ECL signal: 693
[6]
  ECL signal: 19300
[7]
  ECL signal: 870
[8]
  ECL signal: 823
[9]
  ECL signal: 848

B2: Fab VH1-46_IGHD6-6*01_IGHJ1*01_S102A_S103P_S104F & L6_IGKJ1*01_S28P (Fab, V domains shown)
VH: B1 VH with S102A, S103P, S104F
VL: EIVLTQSPATLSLSPGERATLSCRASQPVSSYLAWYQQKPGQAPRLLIYDASNRATGIPARFSGSGSGTDFTLTISSLEPEDFAVYYCQQRSNWPPWTFGQGTKVEIKR
notes: Fab
[10]
  ECL signal: 355 ECL signal
[11]
  ECL signal: 527 ECL signal
[12]
  ECL signal: 37700 ECL signal

B3: Fab VH6-1_IGHD3-3*01_IGHJ4*01 & V4-3_IGLJ4*01 (Fab, V domains shown)
VH: QVQLQQSGPGLVKPSQTLSLTCAISGDSVSSNSAAWNWIRQSPSRGLEWLGRTYYRSKWYNDYAVSVKSRITINPDTSKNQFSLQLNSVTPEDTAVYYCAREYYDFWSGYYTDYFDYWGQGTLVTVSS
VL: QPVLTQPTSLSASPGASARLTCTLRSGINLGSYRIFWYQQKPESPPRYLLSYYSDSSKHQGSGVPSRFSGSKDASSNAGILVISGLQSEDEADYYCMIWHSSASFVFGGGTQLIIL
notes: Tested as a Fab made in E. coli; also called IGHV6-1*01
[13]
  ECL signal: 325
[14]
  ECL signal: 425
[15]
  ECL signal: 484
[16]
  ECL signal: 431
[17]
  ECL signal: 938
[18]
  ECL signal: 472
[19]
  ECL signal: 442
[20]
  ECL signal: 450
